From patent US6486303 (UNIVERSITY OF MEDICINE AND DENTISTRY OF NEW JERSEY, dated 2002) come the findings set out here.

The target of this test is T1, rat LH receptor (rat, UniProt P16235 27-700).
T1 construct: whole, on cells; also called LH receptors
As to the kind of experiment: not described.

T1 sequence (P16235 27-700): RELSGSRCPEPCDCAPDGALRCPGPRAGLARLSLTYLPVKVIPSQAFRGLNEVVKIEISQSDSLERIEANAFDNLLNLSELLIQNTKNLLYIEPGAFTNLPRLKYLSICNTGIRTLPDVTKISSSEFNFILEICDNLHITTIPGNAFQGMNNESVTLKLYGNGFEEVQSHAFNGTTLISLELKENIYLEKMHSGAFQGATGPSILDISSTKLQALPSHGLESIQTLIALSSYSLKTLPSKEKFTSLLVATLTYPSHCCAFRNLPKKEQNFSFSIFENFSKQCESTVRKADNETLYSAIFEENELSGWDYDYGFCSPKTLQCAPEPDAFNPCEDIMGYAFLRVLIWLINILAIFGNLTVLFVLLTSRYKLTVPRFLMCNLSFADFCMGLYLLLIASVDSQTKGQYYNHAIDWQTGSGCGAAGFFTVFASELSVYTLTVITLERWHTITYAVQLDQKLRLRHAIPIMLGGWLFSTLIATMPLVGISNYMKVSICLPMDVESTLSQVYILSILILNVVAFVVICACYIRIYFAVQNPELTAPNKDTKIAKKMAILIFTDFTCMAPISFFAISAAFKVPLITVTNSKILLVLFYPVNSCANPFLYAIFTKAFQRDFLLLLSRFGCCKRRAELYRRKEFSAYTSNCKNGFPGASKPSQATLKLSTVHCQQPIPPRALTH

B1: Fos-αδ52 + Jun-hCGβ′ heterodimer (ligand)
alpha: not shown
beta: SCGGRIARLEEKVKTLKAQNSELASTANMLREQVAQLKQKVMGLRPRCRPINATLAVEKEGCPVCITVNTTICAGYCPTMTRVLQGVLPALPQVVCNYRDVRFESIRLPGCPRGVNPVVSYAVALSCQCALCRRSTTDCGGPKDHPLTCDDPRFQDSSSSKAPPPSLPSPSRLPGPSDTPILPQ
modifications: The Cys of the N-terminal SCGG in each chain is meant to form an intersubunit disulfide.
notes: Secreted from co-transfected COS-7 cells; also called Fos-Jun hCGαδ2; copies: 1 + 1
For B1, the binding result is recorded as “binds”.
